Our source for the reverse-splicing fitness values is the RNAGym collection of RNA variant scans (doi:10.1093/molbev/msab373).

First the molecules themselves.
B1: Azoarcus group I ribozyme (parent)
chain: GUGCCUUGCGCCGGGAAACCACGCAAGGGAUGGUGUCAAAUUCGGCGAAACCUAAGCGCCCGCCCGGGCGUAUGGCAACGCCGAGCCAAGCUUCGGCGCCUGCGCCGAUGAAGGUGUAGAGACUAGACGGCACCCACCUAAGGCAAACGCUAUGGUGAAGGCAUAGUCCAGGGAGUGGCGAAAGUCACACAAACCGG

The series covers variants of B1. Description: reverse-splicing fitness (ratio to wild type); higher = more active; in vitro selection; Mg2+ level not given. In a few lines:
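An in vitro group I ribozyme library with randomized positions was T7-transcribed and gel-purified. In triplicate, 10 pmol RNA in EPPS pH 7.5 was reacted with 50 pmoles of a 30-nt RNA substrate for 1 h at 37 °C across several added MgCl2 levels (1–48 mM), then stopped with EDTA. Products were reverse transcribed from a substrate-complementary primer, PCR-amplified and sequenced (HiSeq 4000). Fitness is a variant's read proportion after selection over that before, normalised to wild type.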
As to GUGCCUUGCGCCGGGAAACCACGCAAGGGAUGGUGUCAAAUUCGGCGAAACCUAAGCGCCCGCCCGGGCGUAUGGCAACGCGGAGCCAAGCUUCGGCGCCUGCGCCGAUGUAGGUGUAGAGACUAGACGGCACCCACCUAAGGCGAACGCUAUGGUGAAGGCAUAGUCUAGGGAGCGGCGAAAGUCACACAAACCGG, the reverse-splicing fitness was determined as 0.0155. To GUGCCUUGCGCCGGGAAACCACGCAAGGGAUGGUGUCAAAUUCGGCGAAACCUAAGCGCCCGCCCGGGCGUAUGGCAACGCUGAGCCAAGCUUCGGCGCCUGCGCCGAUGUAGGUGUAGCGACUAGACGGCACCCACCUAAGGCGAACGGUAUGGUGAAGGCAUAGUCCAGGGAGUGGCGAAAGUCACACAAACCGG belongs 0.00928. On to GUGCCUUGCGCCGGGAAACCACGCAAGGGAUGGUGUCAAAUUCGGCGAAACCUAAGCGCCCGCCCGGGCGUAUGGCAACGCGGAGCCAAGCUUCGGCGCCUGCGCCGAUGUAGGUGUAGAGACUAGACGGCACCCACCUAAGGCCAACGUUAUGGUGAAGGCAUAGUCGAGGGAGUGGCGAAAGUCACACAAACCGG, for which the reverse-splicing fitness was determined as 0.00762. For the variant GUGCCUUGCGCCGGGAAACCACGCAAGGGAUGGUGUCAAAUUCGGCGAAACCUAAGCGCCCGCCCGGGCGUAUGGCAACGCUGAGCCAAGCUUCGGCGCCUGCGCCGAUGCAGGUGUAGAGACUAGACGGCACCCACCUAAGGCCAACGGUAUGGUGAAGGCAUAGUCCAGGGAGAGGCGAAAGUCACACAAACCGG, the reverse-splicing fitness amounted to 0.00961. In the case of GUGCCUUGCGCCGGGAAACCACGCAAGGGAUGGUGUCAAAUUCGGCGAAACCUAAGCGCCCGCCCGGGCGUAUGGCAACGCAGAGCCAAGCUUCGGCGCCUGCGCCGAUGUAGGUGUAGCGACUAGACGGCACCCACCUAAGGCUAACGUUAUGGUGAAGGCAUAGUCCAGGGAGAGGCGAAAGUCACACAAACCGG, the reverse-splicing fitness came to 0.0138.

In the case of GUGCCUUGCGCCGGGAAACCACGCAAGGGAUGGUGUCAAAUUCGGCGAAACCUAAGCGCCCGCCCGGGCGUAUGGCAACGCAGAGCCAAGCUUCGGCGCCUGCGCCGAUGAAGGUGUAGAGACUAGACGGCACCCACCUAAGGCAAACGAUAUGGUGAAGGCAUAGUCAAGGGAGCGGCGAAAGUCACACAAACCGG, the reverse-splicing fitness was 0.0177. The same measure for GUGCCUUGCGCCGGGAAACCACGCAAGGGAUGGUGUCAAAUUCGGCGAAACCUAAGCGCCCGCCCGGGCGUAUGGCAACGCUGAGCCAAGCUUCGGCGCCUGCGCCGAUGUAGGUGUAGCGACUAGACGGCACCCACCUAAGGCCAACGUUAUGGUGAAGGCAUAGUCAAGGGAGCGGCGAAAGUCACACAAACCGG: 0.00517. Turning to GUGCCUUGCGCCGGGAAACCACGCAAGGGAUGGUGUCAAAUUCGGCGAAACCUAAGCGCCCGCCCGGGCGUAUGGCAACGCCGAGCCAAGCUUCGGCGCCUGCGCCGAUGCAGGUGUAGUGACUAGACGGCACCCACCUAAGGCAAACGUUAUGGUGAAGGCAUAGUCUAGGGAGCGGCGAAAGUCACACAAACCGG, the reverse-splicing fitness was determined as 0.0116. With GUGCCUUGCGCCGGGAAACCACGCAAGGGAUGGUGUCAAAUUCGGCGAAACCUAAGCGCCCGCCCGGGCGUAUGGCAACGCCGAGCCAAGCUUCGGCGCCUGCGCCGAUGCAGGUGUAGUGACUAGACGGCACCCACCUAAGGCCAACGCUAUGGUGAAGGCAUAGUCAAGGGAGGGGCGAAAGUCACACAAACCGG, the reverse-splicing fitness turned out to be 0.00212. To GUGCCUUGCGCCGGGAAACCACGCAAGGGAUGGUGUCAAAUUCGGCGAAACCUAAGCGCCCGCCCGGGCGUAUGGCAACGCAGAGCCAAGCUUCGGCGCCUGCGCCGAUGAAGGUGUAGAGACUAGACGGCACCCACCUAAGGCAAACGCUAUGGUGAAGGCAUAGUCUAGGGAGCGGCGAAAGUCACACAAACCGG belongs 0.0153; to GUGCCUUGCGCCGGGAAACCACGCAAGGGAUGGUGUCAAAUUCGGCGAAACCUAAGCGCCCGCCCGGGCGUAUGGCAACGCAGAGCCAAGCUUCGGCGCCUGCGCCGAUGAAGGUGUAGAGACUAGACGGCACCCACCUAAGGCUAACGCUAUGGUGAAGGCAUAGUCGAGGGAGGGGCGAAAGUCACACAAACCGG, 0.00461. In the case of GUGCCUUGCGCCGGGAAACCACGCAAGGGAUGGUGUCAAAUUCGGCGAAACCUAAGCGCCCGCCCGGGCGUAUGGCAACGCGGAGCCAAGCUUCGGCGCCUGCGCCGAUGGAGGUGUAGCGACUAGACGGCACCCACCUAAGGCUAACGGUAUGGUGAAGGCAUAGUCUAGGGAGCGGCGAAAGUCACACAAACCGG, the reverse-splicing fitness stood at 0.0131.

For GUGCCUUGCGCCGGGAAACCACGCAAGGGAUGGUGUCAAAUUCGGCGAAACCUAAGCGCCCGCCCGGGCGUAUGGCAACGCUGAGCCAAGCUUCGGCGCCUGCGCCGAUGUAGGUGUAGGGACUAGACGGCACCCACCUAAGGCCAACGGUAUGGUGAAGGCAUAGUCCAGGGAGCGGCGAAAGUCACACAAACCGG, the reverse-splicing fitness worked out at 0.00719. For GUGCCUUGCGCCGGGAAACCACGCAAGGGAUGGUGUCAAAUUCGGCGAAACCUAAGCGCCCGCCCGGGCGUAUGGCAACGCGGAGCCAAGCUUCGGCGCCUGCGCCGAUGGAGGUGUAGUGACUAGACGGCACCCACCUAAGGCUAACGUUAUGGUGAAGGCAUAGUCGAGGGAGCGGCGAAAGUCACACAAACCGG, the reverse-splicing fitness came out at 0.00343. As to GUGCCUUGCGCCGGGAAACCACGCAAGGGAUGGUGUCAAAUUCGGCGAAACCUAAGCGCCCGCCCGGGCGUAUGGCAACGCGGAGCCAAGCUUCGGCGCCUGCGCCGAUGUAGGUGUAGCGACUAGACGGCACCCACCUAAGGCUAACGGUAUGGUGAAGGCAUAGUCGAGGGAGUGGCGAAAGUCACACAAACCGG, the reverse-splicing fitness came out at 0.00772. Regarding GUGCCUUGCGCCGGGAAACCACGCAAGGGAUGGUGUCAAAUUCGGCGAAACCUAAGCGCCCGCCCGGGCGUAUGGCAACGCCGAGCCAAGCUUCGGCGCCUGCGCCGAUGUAGGUGUAGCGACUAGACGGCACCCACCUAAGGCUAACGAUAUGGUGAAGGCAUAGUCGAGGGAGCGGCGAAAGUCACACAAACCGG, the reverse-splicing fitness is 0.0106. GUGCCUUGCGCCGGGAAACCACGCAAGGGAUGGUGUCAAAUUCGGCGAAACCUAAGCGCCCGCCCGGGCGUAUGGCAACGCCGAGCCAAGCUUCGGCGCCUGCGCCGAUGUAGGUGUAGCGACUAGACGGCACCCACCUAAGGCUAACGCUAUGGUGAAGGCAUAGUCCAGGGAGAGGCGAAAGUCACACAAACCGG: the reverse-splicing fitness came to 0.259. For GUGCCUUGCGCCGGGAAACCACGCAAGGGAUGGUGUCAAAUUCGGCGAAACCUAAGCGCCCGCCCGGGCGUAUGGCAACGCCGAGCCAAGCUUCGGCGCCUGCGCCGAUGCAGGUGUAGAGACUAGACGGCACCCACCUAAGGCGAACGCUAUGGUGAAGGCAUAGUCUAGGGAGAGGCGAAAGUCACACAAACCGG, the reverse-splicing fitness is 0.0269. In the case of GUGCCUUGCGCCGGGAAACCACGCAAGGGAUGGUGUCAAAUUCGGCGAAACCUAAGCGCCCGCCCGGGCGUAUGGCAACGCCGAGCCAAGCUUCGGCGCCUGCGCCGAUGAAGGUGUAGCGACUAGACGGCACCCACCUAAGGCGAACGCUAUGGUGAAGGCAUAGUCGAGGGAGCGGCGAAAGUCACACAAACCGG, the reverse-splicing fitness stood at 0.022.

On to GUGCCUUGCGCCGGGAAACCACGCAAGGGAUGGUGUCAAAUUCGGCGAAACCUAAGCGCCCGCCCGGGCGUAUGGCAACGCUGAGCCAAGCUUCGGCGCCUGCGCCGAUGCAGGUGUAGCGACUAGACGGCACCCACCUAAGGCGAACGGUAUGGUGAAGGCAUAGUCUAGGGAGCGGCGAAAGUCACACAAACCGG, for which the reverse-splicing fitness was determined as 0.0122. Regarding GUGCCUUGCGCCGGGAAACCACGCAAGGGAUGGUGUCAAAUUCGGCGAAACCUAAGCGCCCGCCCGGGCGUAUGGCAACGCAGAGCCAAGCUUCGGCGCCUGCGCCGAUGCAGGUGUAGGGACUAGACGGCACCCACCUAAGGCCAACGGUAUGGUGAAGGCAUAGUCAAGGGAGAGGCGAAAGUCACACAAACCGG, the reverse-splicing fitness was 0.00786.

Consider GUGCCUUGCGCCGGGAAACCACGCAAGGGAUGGUGUCAAAUUCGGCGAAACCUAAGCGCCCGCCCGGGCGUAUGGCAACGCAGAGCCAAGCUUCGGCGCCUGCGCCGAUGCAGGUGUAGAGACUAGACGGCACCCACCUAAGGCUAACGAUAUGGUGAAGGCAUAGUCAAGGGAGUGGCGAAAGUCACACAAACCGG, for which the reverse-splicing fitness was 0.00982. For the variant GUGCCUUGCGCCGGGAAACCACGCAAGGGAUGGUGUCAAAUUCGGCGAAACCUAAGCGCCCGCCCGGGCGUAUGGCAACGCGGAGCCAAGCUUCGGCGCCUGCGCCGAUGUAGGUGUAGGGACUAGACGGCACCCACCUAAGGCAAACGGUAUGGUGAAGGCAUAGUCUAGGGAGCGGCGAAAGUCACACAAACCGG, the reverse-splicing fitness is 0.0123. The same measure for GUGCCUUGCGCCGGGAAACCACGCAAGGGAUGGUGUCAAAUUCGGCGAAACCUAAGCGCCCGCCCGGGCGUAUGGCAACGCGGAGCCAAGCUUCGGCGCCUGCGCCGAUGAAGGUGUAGCGACUAGACGGCACCCACCUAAGGCUAACGGUAUGGUGAAGGCAUAGUCGAGGGAGUGGCGAAAGUCACACAAACCGG: 0.00766. For GUGCCUUGCGCCGGGAAACCACGCAAGGGAUGGUGUCAAAUUCGGCGAAACCUAAGCGCCCGCCCGGGCGUAUGGCAACGCCGAGCCAAGCUUCGGCGCCUGCGCCGAUGGAGGUGUAGGGACUAGACGGCACCCACCUAAGGCGAACGGUAUGGUGAAGGCAUAGUCCAGGGAGGGGCGAAAGUCACACAAACCGG, the reverse-splicing fitness was 0.00619. GUGCCUUGCGCCGGGAAACCACGCAAGGGAUGGUGUCAAAUUCGGCGAAACCUAAGCGCCCGCCCGGGCGUAUGGCAACGCGGAGCCAAGCUUCGGCGCCUGCGCCGAUGAAGGUGUAGUGACUAGACGGCACCCACCUAAGGCAAACGUUAUGGUGAAGGCAUAGUCUAGGGAGCGGCGAAAGUCACACAAACCGG: the reverse-splicing fitness was determined as 0.00336.

For GUGCCUUGCGCCGGGAAACCACGCAAGGGAUGGUGUCAAAUUCGGCGAAACCUAAGCGCCCGCCCGGGCGUAUGGCAACGCAGAGCCAAGCUUCGGCGCCUGCGCCGAUGCAGGUGUAGCGACUAGACGGCACCCACCUAAGGCGAACGGUAUGGUGAAGGCAUAGUCCAGGGAGCGGCGAAAGUCACACAAACCGG, the reverse-splicing fitness came to 0.0113. As for GUGCCUUGCGCCGGGAAACCACGCAAGGGAUGGUGUCAAAUUCGGCGAAACCUAAGCGCCCGCCCGGGCGUAUGGCAACGCUGAGCCAAGCUUCGGCGCCUGCGCCGAUGCAGGUGUAGAGACUAGACGGCACCCACCUAAGGCCAACGGUAUGGUGAAGGCAUAGUCAAGGGAGGGGCGAAAGUCACACAAACCGG, the reverse-splicing fitness was determined as 0.00657. On to GUGCCUUGCGCCGGGAAACCACGCAAGGGAUGGUGUCAAAUUCGGCGAAACCUAAGCGCCCGCCCGGGCGUAUGGCAACGCGGAGCCAAGCUUCGGCGCCUGCGCCGAUGCAGGUGUAGCGACUAGACGGCACCCACCUAAGGCUAACGAUAUGGUGAAGGCAUAGUCCAGGGAGAGGCGAAAGUCACACAAACCGG, for which the reverse-splicing fitness was 0.0102. Turning to GUGCCUUGCGCCGGGAAACCACGCAAGGGAUGGUGUCAAAUUCGGCGAAACCUAAGCGCCCGCCCGGGCGUAUGGCAACGCCGAGCCAAGCUUCGGCGCCUGCGCCGAUGAAGGUGUAGCGACUAGACGGCACCCACCUAAGGCUAACGCUAUGGUGAAGGCAUAGUCAAGGGAGUGGCGAAAGUCACACAAACCGG, the reverse-splicing fitness turned out to be 0.032.
